# B1: human neutral amino acid transporter ASCT2 (natural protein)
# chain: MVADPPRDSKGLAAAEPTANGGLALASIEDQGAAAGGYCGSRDQVRRCLRANLLVLLTVVAVVAGVALGLGVSGAGGALALGPERLSAFVFPGELLLRLLRMIILPLVVCSLIGGAASLDPGALGRLGAWALLFFLVTTLLASALGVGLALALQPGAASAAINASVGAAGSAENAPSKEVLDSFLDLARNIFPSNLVSAAFRSYSTTYEERNITGTRVKVPVGQEVEGMNILGLVVFAIVFGVALRKLGPEGELLIRFFNSFNEATMVLVSWIMWYAPVGIMFLVAGKIVEMEDVGLLFARLGKYILCCLLGHAIHGLLVLPLIYFLFTRKNPYRFLWGIVTPLATAFGTSSSSATLPLMMKCVEENNGVAKHISRFILPIGATVNMDGAALFQCVAAVFIAQLSQQSLDFVKIITILVTATASSVGAAGIPAGGVLTLAIILEAVNLPVDHISLILAVDWLVDRSCTVLNVEGDALGAGLLQNYVDRTESRSTEPELIQVKSELPLDPLPVPTEEGNPLLKHYRGPAGDATVASEKESVM
# Biological target: the molecule itself
# Assay: cryo-EM structure
protein,measurement,value
B1,stoichiometry N,3

# Reference: publication PMC11297037 (Nature Communications, 2024)
